Data reported in patent US20200317776A1 (published 2020).
Where a chain is given by its changes, count along the chain named. Like-named read-outs stand apart in the source and are kept apart here. Values belong to the binder of their own block, whether it stands above or below them.

What was measured:
[1] = molecular target: T1, human TREM2 Fc fusion (entire TREM2 ECD; only one Fc arm fused to TREM2) (human, UniProt Q9NZC2 19-174); test: BLI, Fab, monovalent
T1 construct: also called huTREM2-Fc; recombinant hTREM2
T1 sequence: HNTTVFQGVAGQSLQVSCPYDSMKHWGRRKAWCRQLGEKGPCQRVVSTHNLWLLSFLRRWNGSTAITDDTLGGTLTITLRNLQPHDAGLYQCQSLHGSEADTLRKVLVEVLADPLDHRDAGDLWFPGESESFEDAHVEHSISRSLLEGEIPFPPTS

[2] = molecular target: T2, cynomolgus monkey TREM2 Fc fusion (entire TREM2 ECD; only one Fc arm fused to TREM2) (cynomolgus monkey, UniProt Q9NZC2 19-174 (human entry)); test: BLI, Fab, monovalent
T2 construct: also called cyno TREM2-Fc
T2 chain: T1 sequence with A10E, W60R, L89F, F125V

[3] = molecular target: T3, human TREM2 expressed on cells (human, UniProt Q9NZC2 19-230); test: FACS, hTREM2 BW cells
T3 construct: BW5147.G.1.4 cells stably expressing human TREM2 together with Dap12, or endogenous TREM2 of primary human myeloid cells; also called huT2 BW; hTREM2 expressing cell line
T3 sequence: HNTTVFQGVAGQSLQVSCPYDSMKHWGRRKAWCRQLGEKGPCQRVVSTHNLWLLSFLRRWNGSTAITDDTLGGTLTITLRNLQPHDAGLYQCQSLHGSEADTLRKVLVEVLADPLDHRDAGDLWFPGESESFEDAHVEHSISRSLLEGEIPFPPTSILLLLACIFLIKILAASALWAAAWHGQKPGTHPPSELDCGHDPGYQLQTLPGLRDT
Description: (§1) To examine cell binding of affinity matured anti-TREM2 antibodies, both primary human monocyte derived dendritic cells and recombinant, human TREM2 expressing cells were utilized. For the latter, BW5147.G.1.4 (ATCC® TIB48™) and HEK293T cells stably expressing human TREM2 together with Dap12 using viral infection were established. For primary human monocyte derived dendritic cells, human monocytes were isolated from whole blood using RosetteSep Human monocyte enrichment cocktail (Stemcell technologies) and Ficoll centrifugation per manufacturer protocols. After lysing red blood cells with ACK lysing buffer, monocytes were resuspended in complete media (RPMI, 10% FBS, Pen/Strep, L-glutamine, HEPES, non-essential amino acid, Sodium pyruvate) with 100 ng/ml human GM-CSF (hu-GMCSF) and, human IL-4 (hu-IL-4) to differentiate dendritic cells for 6 days.
(§2) Cells were harvested by trypsinization (Hek293T) or scraping (BW and dendritic cells), washed in PBS, counted and plated on 96-well U bottom plates at […] cells/well. The plates were spun at 1,400 rpm for 3 minutes and primary TREM2 or control antibodies were added in FACS buffer (PBS+2% FBS) and incubated on ice for one hour. Cells were subsequently centrifuged as before and washed thrice with FACS buffer. Cells were then incubated with anti-human PE conjugated secondary antibody (BD Biosciences) in FACS buffer for 30 minutes on ice. Cells were again washed thrice with FACS buffer and analyzed on a BD FACS Canto or an Intellicyt Flow Cytometer. Binding was measured as mean fluorescence intensity in the APC channel.

[4] = molecular target: T3, human TREM2 expressed on cells; test: cell-based or functional assay
[5] = molecular target: T4, human TREM2/DAP12 fusion protein (human, UniProt O43914 41-113, limits assumed); test: cell-based or functional assay
T4 sequence (O43914 other isoform, or with tags, fused parts or gaps limits assumed): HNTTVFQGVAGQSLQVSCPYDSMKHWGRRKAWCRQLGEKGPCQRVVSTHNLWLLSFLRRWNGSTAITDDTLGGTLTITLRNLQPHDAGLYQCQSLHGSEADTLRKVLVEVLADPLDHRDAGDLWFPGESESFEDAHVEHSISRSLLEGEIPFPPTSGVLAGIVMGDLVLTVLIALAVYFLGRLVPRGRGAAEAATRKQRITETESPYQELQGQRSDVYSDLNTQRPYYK

[6] = molecular target: T3, human TREM2 expressed on cells; test: FACS, human DCs
Description: as §1, §2

[7] = molecular target: T4, human TREM2/DAP12 fusion protein; test: cell-based or functional assay; remark: listed apart in the source
[8] = molecular target: T3, human TREM2 expressed on cells; test: FACS, hTREM2 BW cells; remark: listed apart in the source
Method: To examine cell binding of anti-TREM2 antibodies, recombinant, human TREM2-expressing BW5147.G.1.4 cells (ATCC® TIB48™) were established by stably expressing either mouse TREM2 or human TREM2 together with Dap12 using viral infection. Cells were harvested by scraping, washed in PBS, counted and plated on 96-well U bottom plates at 1)(10⁵ cells/well. The plates were spun at 1,400 rpm for 3 minutes and primary anti-TREM2 or control antibodies were added in FACS buffer (PBS H2% FBS) and incubated on ice for one hour. Cells were subsequently centrifuged as before and washed thrice with FACS buffer. Cells were then incubated with anti-human PE conjugated secondary antibody (BD Biosciences) in FACS buffer for 30 minutes on ice. Cells were again washed thrice with FACS buffer and analyzed on a BD FACS Canto. Binding was measured as mean fluorescence intensity in the APC channel.

[9] = molecular target: T1, human TREM2 Fc fusion (entire TREM2 …); test: BLI, Fab, monovalent; remark: listed apart in the source
Method: Briefly, IgG's were loaded on-line onto AHQ sensors. Sensors were equilibrated off-line in assay buffer for 30 minutes and then monitored on-line for 60 seconds for baseline establishment. For avid binding measurement, sensors with loaded IgGs were exposed to 100 nM antigen (human TREM2 Fc fusion using the entire TREM2 ECD; only one Fc arm was fused to TREM2) for 3 minutes, afterwards they were transferred to assay buffer for 3 minutes for off-rate measurement. Monovalent binding measurements were obtained by loading human TREM2 Fe fusion antigens to AHQ sensor and followed by exposure to 100 nM TREM2 antibody Fab. Kinetics data were fit using a 1:1 binding model in the data analysis software provided by ForteBio. Assay was run at room temperature (25° C.).

Soluble luciferase activation at 10 µg/ml Fold over control [7]: 4.13 fold over control
B2: AL2p-h36 (antibody, human IgG1, V domains shown)
VH: EVQLLESGGGLVQPGGSLRLSCAASGYAFSSSWMNWVRQAPGKGLEWIGRIYPGDGDTNYAQKFQGRATISADTSKNTAYLQMNSLRAEDTAVYYCARLLRNQPGESYAMDYWGQGTLVTVSS
VL: DVVMTQTPLSLSVTPGQPASISCRSSQSLVHSNGYTYLHWYLQKPGQSPQLLIYKVSNRFSGVPDRFSGSGSGTDFTLKISRVEAEDLGVYFCSQSTRVPYTFGQGTKLEIK

cell binding (FOB) [8]: 87 FOB
Soluble luciferase activation at 10 µg/ml Fold over control [7]: 4.97 fold over control
Kd [9]: 193 nM
B4: AL2p-h19 (antibody, human IgG1, V domains shown)
VH: QVQLVQSGAEVKKPGSSVKVSCKASGYAFSSSWMNWVRQAPGQGLEWMGRIYPGDGDTNYAQKFQGRATITADTSTSTAYMELSSLRSEDTAVYYCARLLRNQPGESYAMDYWGQGTLVTVSS
VL: B2 VL with V2I, L88V, F92Y
notes: humanized, human IgG1; Fab and IgG formats under one id

Kd [1]: 13.9 nM
Kd [2]: 16.8 nM
Kd [3]: 2.3 nM
BW Luc assay plate bound 7.3 nM IgG, FOC [5]: 1.53 FOC
BW Luc assay soluble 7.3 nM IgG, FOC [5]: 2.17 FOC
MFI [6]: 235 MFI
B5: AL2p-54 (antibody, V domains shown)
VH: B4 VH with S32H, D55E, Q65H, A68V, T74E, Q103K
VL: B2 VL with S25T, G34Q, F60V, L88V, F92Y
notes: Fab and IgG formats under one id
DC viability (AUC) [4]: 570000 AUC
Mac viability (AUC) [4]: -7640 AUC

Kd [1]: 17.8 nM
Kd [2]: 17.6 nM
Kd [3]: 1.83 nM
BW Luc assay plate bound 7.3 nM IgG, FOC [5]: 1.41 FOC
BW Luc assay soluble 7.3 nM IgG, FOC [5]: 2.03 FOC
MFI [6]: 152 MFI
B7: AL2p-57 (antibody, V domains shown)
VH: B4 VH with Q1E, S32H, D55E, Q65H, A68V, T74E, Q103K
VL: B2 VL with S25T, G34Q, F60V, L88V, F92Y
notes: as for B5
DC viability (AUC) [4]: 506000 AUC
Mac viability (AUC) [4]: -3560 AUC

Kd [1]: 18.5 nM
Kd [2]: 22.6 nM
Kd [3]: 2.05 nM
BW Luc assay plate bound 7.3 nM IgG, FOC [5]: 1.49 FOC
BW Luc assay soluble 7.3 nM IgG, FOC [5]: 2.08 FOC
MFI [6]: 141 MFI
B9: AL2p-55 (antibody, V domains shown)
VH: B4 VH with Q1E, S32H, D55E, Q65H, A68V, T74E, Q103K
VL: B2 VL with S25T, G34A, F60V, L88V, F92Y
notes: same VH/VL entries as AL2p-56; Fab and IgG formats under one id
DC viability (AUC) [4]: 631000 AUC
Mac viability (AUC) [4]: -5280 AUC

Kd [1]: 18.7 nM
Kd [2]: 18.8 nM
Kd [3]: 2.01 nM
BW Luc assay plate bound 7.3 nM IgG, FOC [5]: 1.51 FOC
BW Luc assay soluble 7.3 nM IgG, FOC [5]: 2.02 FOC
MFI [6]: 155 MFI
B10: AL2p-56 (antibody, V domains shown)
VH: B4 VH with Q1E, S32H, D55E, Q65H, A68V, T74E, Q103K
VL: B2 VL with S25T, G34A, F60V, L88V, F92Y
notes: same VH/VL entries as AL2p-55; Fab and IgG formats under one id
DC viability (AUC) [4]: 643000 AUC
Mac viability (AUC) [4]: -7620 AUC

Soluble luciferase activation at 10 µg/ml Fold over control [7]: 5.59 fold over control
B11: AL2p-h28 (antibody, human IgG1, V domains shown)
VH: B4 VH with S16A, M48I, I70L, Y95F
VL: B2 VL

Soluble luciferase activation at 10 µg/ml Fold over control [7]: 5.8 fold over control
B14: AL2p-h29 (antibody, human IgG1, V domains shown)
VH: B4 VH with S16A, M48I, I70M
VL: B2 VL

Continued, binder first:

B1: AL2p-46 (antibody, V domains shown)
VH: B4 VH with S32D, D55E, Q62R, A68V, T74E, Q103K
VL: B2 VL with S25T, G34Q, F60V, L88V, F92Y
notes: as for B5
Kd [1]: 13 nM
Kd [2]: 16.1 nM
Kd [3]: 1.33 nM
DC viability (AUC) [4]: 597000 AUC
Mac viability (AUC) [4]: 6040 AUC
BW Luc assay plate bound 7.3 nM IgG, FOC [5]: 1.64 FOC
BW Luc assay soluble 7.3 nM IgG, FOC [5]: 2.98 FOC
MFI [6]: 187 MFI

B3: AL2p-52 (antibody, V domains shown)
VH: B4 VH with Q1E, S32H, D55E, Q65H, A68V, T74E
VL: B2 VL with S25T, G34A, F60V, L88V, F92Y
notes: as for B5
Kd [1]: 27 nM
Kd [2]: 28 nM
Kd [3]: 2.42 nM
DC viability (AUC) [4]: 283000 AUC
Mac viability (AUC) [4]: -13500 AUC
BW Luc assay plate bound 7.3 nM IgG, FOC [5]: 1.3 FOC
BW Luc assay soluble 7.3 nM IgG, FOC [5]: 1.75 FOC
MFI [6]: 224 MFI

B6: AL2p-49 (antibody, V domains shown)
VH: B4 VH with Q1E, S32D, D55E, Q62R, Q65H, A68V, T74E, Q103K
VL: B2 VL with S25T, G34Q, F60V, L88V, F92Y
notes: as for B5
Kd [1]: 11.6 nM
Kd [2]: 14.1 nM
Kd [3]: 1.15 nM
DC viability (AUC) [4]: 754000 AUC
Mac viability (AUC) [4]: 15100 AUC
BW Luc assay plate bound 7.3 nM IgG, FOC [5]: 3.12 FOC
BW Luc assay soluble 7.3 nM IgG, FOC [5]: 3.28 FOC
MFI [6]: 413 MFI

B8: AL2p-53 (antibody, V domains shown)
VH: B4 VH with Q1E, S32H, D55E, Q65H, A68V, T74E
VL: B2 VL with S25T, G34Q, F60V, L88V, F92Y
notes: as for B5
Kd [1]: 21.1 nM
Kd [2]: 31.3 nM
Kd [3]: 1.72 nM
DC viability (AUC) [4]: 234000 AUC
Mac viability (AUC) [4]: -10200 AUC
BW Luc assay plate bound 7.3 nM IgG, FOC [5]: 1.45 FOC
BW Luc assay soluble 7.3 nM IgG, FOC [5]: 2.32 FOC
MFI [6]: 159 MFI

B12: AL2p-50 (antibody, V domains shown)
VH: B4 VH with S32H, D55E, Q65H, A68V, T74E
VL: B2 VL with S25T, G34A, F60V, L88V, F92Y
notes: as for B5
Kd [1]: 23.9 nM
Kd [2]: 36.1 nM
Kd [3]: 1.8 nM
DC viability (AUC) [4]: 286000 AUC
Mac viability (AUC) [4]: -10400 AUC
BW Luc assay plate bound 7.3 nM IgG, FOC [5]: 1.19 FOC
BW Luc assay soluble 7.3 nM IgG, FOC [5]: 2.07 FOC
MFI [6]: 235 MFI

B13: AL2p-48 (antibody, V domains shown)
VH: B4 VH with S32D, D55E, Q62R, Q65H, A68V, T74E, Q103K
VL: B2 VL with S25T, G34Q, F60V, L88V, F92Y
notes: as for B5
Kd [1]: 11.2 nM
Kd [2]: 14.9 nM
Kd [3]: 1.4 nM
DC viability (AUC) [4]: 770000 AUC
Mac viability (AUC) [4]: 23600 AUC
BW Luc assay plate bound 7.3 nM IgG, FOC [5]: 3.25 FOC
BW Luc assay soluble 7.3 nM IgG, FOC [5]: 3.65 FOC
MFI [6]: 408 MFI

B15: AL2p-51 (antibody, V domains shown)
VH: B4 VH with S32H, D55E, Q65H, A68V, T74E
VL: B2 VL with S25T, G34Q, F60V, L88V, F92Y
notes: as for B5
Kd [1]: 21.2 nM
Kd [2]: 27.2 nM
Kd [3]: 1.92 nM
DC viability (AUC) [4]: 259000 AUC
Mac viability (AUC) [4]: -11200 AUC
BW Luc assay plate bound 7.3 nM IgG, FOC [5]: 1.22 FOC
BW Luc assay soluble 7.3 nM IgG, FOC [5]: 2.3 FOC
MFI [6]: 195 MFI
